Experimental data published in patent publication US20030027781.

System: RBC ghost membrane 105 kDa protein (unidentified; disulfide-linked dimer, ~210 kDa non-reduced) (Homo sapiens)
Assay: filter
Conditions: Scatchard on RBC ghosts, 1600 sites per cell; target assigned to 105 kDa protein by crosslinking

AACTCAGTGGTAGGTAACGGTT [c56t]
Kd: 4 nM
